How the values were obtained:
[1] = Km of L27V reversion variants, native coelenterazine; format: biochemical
Experimental: Relative activities <1 indicate the reversion is detrimental compared to the residue at that site in the L27V variant. Relative activities >1 indicate the reversion is favorable for activity compared to the residue at that site in the L27V variant. Some additional data on these mutants indicated the following: 166K, 54F, 54A and L27V were tested for thermal stability. The T1/2 60° C. for 166K, 54F, and 54A were 87, 74, and 33%, respectively, indicating these substitutions cause a reduction in thermal stability. […] This indicates higher substrate affinity for L27V, particularly for the position 54 substitutions.

[2] = Enzyme kinetics of OgLuc variants in E. coli lysates; format: biochemical; conditions: PBI-3939, E. coli lysates
Experimental: Using methods known in the art, enzyme kinetic assays measuring luminescence were performed with the lysates of E. coli containing IV and the IV variants 15C1, 9B8, 9F6, and 9A3. […] Two fold serial dilutions of PBI-3939 in the assay buffer described previously in Example 26 were assayed with the diluted lysates. […] Variants 9B8 and 9F6 had higher Km values compared to IV while Km values for the other variants were unchanged.
Luminescence was measured on a TECAN® INFINITE® F500 luminometer.
The enzyme kinetics values were determined for the OgLuc variants as described previously, except luminescence was measured using a GLOMAX® luminometer. Three replicates were used for each variant.

[3] = Thermal stability of OgLuc variants at 60° C.; format: physicochemical; conditions: 60° C., assay buffer MES pH 6.0
Experimental: Aliquots were removed at different time-points and placed on dry ice to freeze the samples. […] Luminescence was measured on a GLOMAX® luminometer (Promega Corp.).
The thermal stability of the variants at 60° C. was examined as described above, except the assay buffer contained 100 mM MES pH 6.0 instead of HEPES.

HEK293 cells = test: Luminescence in sandwich background, HEK293 cells; format: cell-based, human; conditions: non-sandwich versus sandwich
Experimental: The PCR library in the Id-OgLuc-HT7 sandwich background was screened for additional variants with increased luminescence compared to 9B8 opt+K33N in sandwich background. Selected variants were then assayed in HEK293 and NIH3T3 cells. […] 1F7 (F) (SEQ ID NOs: 84 and 85) and 15H1 (F) (SEQ ID NOs: 86 and 87) had at least 1.3 fold-increase in luminescence in E. coli. 1F7 (F) was brighter than 9B8 opt+K33N in the sandwich background in HEK293 and NIH3T3 cells.
The variants 9B8 opt+K33N+T39T+K43R+Y68D (“V2”; SEQ ID NOs: 92 and 93), 9B8 opt+K33N+L27V+K43R+Y68D (SEQ ID NOs: 339 and 340), 9B8 opt+K33N+L27V+T39T+K43R+S66N (SEQ ID NOs: 341 and 342), and 9B8 opt+K33N+L27V+T39T+K43R+Y68D (“L27V”; SEQ ID NOs: 88 and 89) were subcloned into the Id-OgLuc-HT7 sandwich background as described above and assayed in HEK293 and NIH3T3 cells as described above. The luminescence generated by the sandwiched variants were compared to the luminescence generated by the […] sandwich (SEQ ID NOs: 59 and 60) (Table 38). The L27V sandwich (SEQ ID NOs: 90 and 91) and V2 sandwich (SEQ ID NOs: 94 and 95) had at least 1.3× fold-increase in luminescence in HEK293 and NIH3T3 cells.
The sandwich and non-sandwich versions of the variants V2, 9B8 opt+K33N+L27V+K43R+Y68D, 9B8 opt+K33N+L27V+T39T+K43R+S66N, and L27V were assayed in HEK293 and NIH3T3 cells as described in Example 37. The luminescence generated by the non-sandwiched variants was compared to the luminescence generated by the sandwiched variants (Table 39).

B1: L27V: 9B8 opt+K33N variant with L27V, T39T, K43R, Y68D (SEQ ID NO: 89) (protein)
chain: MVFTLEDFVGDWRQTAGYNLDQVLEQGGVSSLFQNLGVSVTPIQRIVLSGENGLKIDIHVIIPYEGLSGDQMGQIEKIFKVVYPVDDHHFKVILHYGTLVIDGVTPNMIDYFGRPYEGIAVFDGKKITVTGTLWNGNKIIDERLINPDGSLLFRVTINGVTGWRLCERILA
In the case of B1, the Km [1] is reported as 16 µM, the Km [2] is reported as 13.9 µM and the Vmax [2] is reported as 190,000,000 RLU/0.5 sec. The 1/2 life hours [3] was 21.7 h and the “Fold-decrease in luminescence in the presence of sandwich background, HEK 293” value (HEK293 cells) was 6.

Source: US9951373B2, “Oplophorus-derived luciferases, novel coelenterazine substrates, and methods of use” (Promega Corporation, priority 2010, dated 2018)
